Results on three molecules are retold here after paper PMC5576923 (eLife, 2017).

In experiment [1] the target is T1, β-Arrestin1 (human (endogenous in Caco-2 and HCT116), UniProt P49407 1-418). Nature of the experiment: cell-based or functional assay.
Experiment [2] concerns the target T1, β-Arrestin1. Nature of the experiment: proximity ligation; Duolink II red kit on fixed, permeabilised cells; PTEN-/- HCT116 cells transfected 24 hr with GFP-tagged EV or PTEN constructs, HCT116 cells as positive control; signal as AI units, n = 35 cells per condition in triplicate. To be noted: partners not purified.

T1 sequence (P49407 whole entry): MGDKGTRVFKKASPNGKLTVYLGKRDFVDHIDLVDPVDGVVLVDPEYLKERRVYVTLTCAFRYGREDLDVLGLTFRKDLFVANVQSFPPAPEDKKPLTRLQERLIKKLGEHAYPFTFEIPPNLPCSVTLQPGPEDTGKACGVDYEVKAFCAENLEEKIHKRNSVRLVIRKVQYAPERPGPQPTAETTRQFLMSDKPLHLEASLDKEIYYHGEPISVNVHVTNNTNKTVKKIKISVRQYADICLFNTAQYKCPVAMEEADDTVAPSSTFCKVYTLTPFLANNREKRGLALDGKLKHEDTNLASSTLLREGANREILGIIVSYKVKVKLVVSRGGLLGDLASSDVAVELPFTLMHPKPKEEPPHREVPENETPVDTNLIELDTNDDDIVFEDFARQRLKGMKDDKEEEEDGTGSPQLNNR

B1: ARHGAP21 (natural protein, human (endogenous in Caco-2 and HCT116), UniProt Q5T5U3 1-1958, looked up)
chain: MMATRRTGLSEGDGDKLKACEVSKNKDGKEQSETVSLSEDETFSWPGPKTVTLKRTSQGFGFTLRHFIVYPPESAIQFSYKDEENGNRGGKQRNRLEPMDTIFVKQVKEGGPAFEAGLCTGDRIIKVNGESVIGKTYSQVIALIQNSDTTLELSVMPKDEDILQVLQFTKDVTALAYSQDAYLKGNEAYSGNARNIPEPPPICYPWLPSAPSAMAQPVEISPPDSSLSKQQTSTPVLTQPGRAYRMEIQVPPSPTDVAKSNTAVCVCNESVRTVIVPSEKVVDLLSNRNNHTGPSHRTEEVRYGVSEQTSLKTVSRTTSPPLSIPTTHLIHQPAGSRSLEPSGILLKSGNYSGHSDGISSSRSQAVEAPSVSVNHYSPNSHQHIDWKNYKTYKEYIDNRRLHIGCRTIQERLDSLRAASQSTTDYNQVVPNRTTLQGRRRSTSHDRVPQSVQIRQRSVSQERLEDSVLMKYCPRSASQGALTSPSVSFSNHRTRSWDYIEGQDETLENVNSGTPIPDSNGEKKQTYKWSGFTEQDDRRGICERPRQQEIHKSFRGSNFTVAPSVVNSDNRRMSGRGVGSVSQFKKIPPDLKTLQSNRNFQTTCGMSLPRGISQDRSPLVKVRSNSLKAPSTHVTKPSFSQKSFVSIKDQRPVNHLHQNSLLNQQTWVRTDSAPDQQVETGKSPSLSGASAKPAPQSSENAGTSDLELPVSQRNQDLSLQEAETEQSDTLDNKEAVILREKPPSGRQTPQPLRHQSYILAVNDQETGSDTTCWLPNDARREVHIKRMEERKASSTSPPGDSLASIPFIDEPTSPSIDHDIAHIPASAVISASTSQVPSIATVPPCLTTSAPLIRRQLSHDHESVGPPSLDAQPNSKTERSKSYDEGLDDYREDAKLSFKHVSSLKGIKIADSQKSSEDSGSRKDSSSEVFSDAAKEGWLHFRPLVTDKGKRVGGSIRPWKQMYVVLRGHSLYLYKDKREQTTPSEEEQPISVNACLIDISYSETKRKNVFRLTTSDCECLFQAEDRDDMLAWIKTIQESSNLNEEDTGVTNRDLISRRIKEYNNLMSKAEQLPKTPRQSLSIRQTLLGAKSEPKTQSPHSPKEESERKLLSKDDTSPPKDKGTWRKGIPSIMRKTFEKKPTATGTFGVRLDDCPPAHTNRYIPLIVDICCKLVEERGLEYTGIYRVPGNNAAISSMQEELNKGMADIDIQDDKWRDLNVISSLLKSFFRKLPEPLFTNDKYADFIEANRKEDPLDRLKTLKRLIHDLPEHHYETLKFLSAHLKTVAENSEKNKMEPRNLAIVFGPTLVRTSEDNMTHMVTHMPDQYKIVETLIQHHDWFFTEEGAEEPLTTVQEESTVDSQPVPNIDHLLTNIGRTGVSPGDVSDSATSDSTKSKGSWGSGKDQYSRELLVSSIFAAASRKRKKPKEKAQPSSSEDELDNVFFKKENVEQCHNDTKEESKKESETLGRKQKIIIAKENSTRKDPSTTKDEKISLGKESTPSEEPSPPHNSKHNKSPTLSCRFAILKESPRSLLAQKSSHLEETGSDSGTLLSTSSQASLARFSMKKSTSPETKHSEFLANVSTITSDYSTTSSATYLTSLDSSRLSPEVQSVAESKGDEADDERSELISEGRPVETDSESEFPVFPTALTSERLFRGKLQEVTKSSRRNSEGSELSCTEGSLTSSLDSRRQLFSSHKLIECDTLSRKKSARFKSDSGSLGDAKNEKEAPSLTKVFDVMKKGKSTGSLLTPTRGESEKQEPTWKTKIADRLKLRPRAPADDMFGVGNHKVNAETAKRKSIRRRHTLGGHRDATEISVLNFWKVHEQSGERESELSAVNRLKPKCSAQDLSISDWLARERLRTSTSDLSRGEIGDPQTENPSTREIATTDTPLSLHCNTGSSSSTLASTNRPLLSIPPQSPDQINGESFQNVSKNASSAANAQPHKLSETPGSKAEFHPCL
notes: also called ARHGA21; source: endogenous, Caco-2, Caco-2 ShPTEN, HCT116 and PTEN-/- HCT116 cells (lysate, membrane fraction, or fixed cells)
B1: in the experiment with β-Arrestin1 [1], the “Cdc42-GTP (ADU, fold) in HCT116 cells after pep24 vs control peptide” value is 0.44 fold change and the “Cdc42-GTP (fold change, ADU) in Caco-2 cells after 10 μM pep24 vs control peptide” value came out at 0.48 fold change. Further, in the experiment with β-Arrestin1 [2], the “PLA interaction AI” value was determined as 123 AI units.

B2: GFP-labeled PTEN C124S-T383A (natural protein, UniProt P60484 1-403, looked up)
chain: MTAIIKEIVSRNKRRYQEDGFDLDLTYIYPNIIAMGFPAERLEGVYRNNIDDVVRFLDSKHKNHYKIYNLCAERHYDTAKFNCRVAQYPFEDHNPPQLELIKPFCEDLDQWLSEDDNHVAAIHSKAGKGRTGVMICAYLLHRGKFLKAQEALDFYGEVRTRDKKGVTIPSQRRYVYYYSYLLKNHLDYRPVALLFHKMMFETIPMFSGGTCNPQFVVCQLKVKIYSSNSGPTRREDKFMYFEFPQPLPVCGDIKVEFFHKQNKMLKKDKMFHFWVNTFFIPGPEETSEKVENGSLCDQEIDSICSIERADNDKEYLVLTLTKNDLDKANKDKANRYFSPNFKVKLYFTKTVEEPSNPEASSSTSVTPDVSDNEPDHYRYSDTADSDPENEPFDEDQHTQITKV
notes: also called CS-T383A; source: PTEN-/- HCT116 cells, transfected, in fixed cells
For the molecule B2, the “PLA interaction AI” value with β-Arrestin1 [2] worked out at 69.8 AI units.

B3: PTEN (phosphatase and tensin homolog) (natural protein)
chain: not shown
notes: source: endogenous, HCT116 cells (fixed cells)
As to B3, the “PLA interaction AI” value with β-Arrestin1 [2] turned out to be 101 AI units.
